Source: US20260002156

T1: fluorogenic peptide substrate to ADAM10 (Mca-PLAQAV-Dpa-RSSR)
T1 chain: PLAQAVXRSSR

B1: ADAM10 on the surface of HCC cells (HepG2) (protein)
chain: TTSAEKNTCQLYIQTDHLFFKYYGTREAVIAQISSHVKAIDTIYQTTDFSGIRNISFMVKRIRINTTADEKDPTNPFRFPNIGVEKFLELNSEQNHDDYCLAYVFTDRDFDDGVLGLAWVGAPSGSSGGICEKSKLYSDGKKKSLNTGIITVQNYGSHVPPKVSHITFAHEVGHNFGSPHDSGTECTPGESKNLGQKENGNYIMYARATSGDKLNNNKFSLCSIRNISQVLEKKRNNCFVESGQPICGNGMVEQGEECDCGYSDQCKDECCFDANQPEGRKCKLKPGKQCSPSQGPCCTAQCAFKSKSEKCRDDSDCAREGICNGFTALCPASDPKPNFTDCNRHTQVCINGQCAGSICEKYGLEECTCASSDGKDDKELCHVCCMKKMDPSTCASTGSVQWSRHFSGRTITLQPGSPCNDFRGYCDVFMRCRLVDADGPLARLKKAIFSPELYENIAEWIVAHWWAVLLMGIALIMLMAGFIKICSVHTPSSNPKLPPPKPLPGTLKRRRPPQPIQQPQRQRPRESYQMGHMRR
B2: recombinant human ADAM10 (rhADAM10) (protein)
chain: TTSAEKNTCQLYIQTDHLFFKYYGTREAVIAQISSHVKAIDTIYQTTDFSGIRNISFMVKRIRINTTADEKDPTNPFRFPNIGVEKFLELNSEQNHDDYCLAYVFTDRDFDDGVLGLAWVGAPSGSSGGICEKSKLYSDGKKKSLNTGIITVQNYGSHVPPKVSHITFAHEVGHNFGSPHDSGTECTPGESKNLGQKENGNYIMYARATSGDKLNNNKFSLCSIRNISQVLEKKRNNCFVESGQPICGNGMVEQGEECDCGYSDQCKDECCFDANQPEGRKCKLKPGKQCSPSQGPCCTAQCAFKSKSEKCRDDSDCAREGICNGFTALCPASDPKPNFTDCNRHTQVCINGQCAGSICEKYGLEECTCASSDGKDDKELCHVCCMKKMDPSTCASTGSVQWSRHFSGRTITLQPGSPCNDFRGYCDVFMRCRLVDADGPLARLKKAIFSPELYENIAE

Biological target: T1, fluorogenic peptide substrate to ADAM10 …

Protein	fluorescence intensity (fluorogenic peptide cleavage assay)
B1	after incubation with HCC cells, the fluorogenic peptide significantly increased the fluorescence intensity, stronger than the recombinant human ADAM10 (rhADAM10) which serves as a positive control
B2	the recombinant human ADAM10 (rhADAM10) which serves as a positive control
